In article PMC2172667 (The Journal of Cell Biology, 2003):

Molecular target: the molecule itself
Assay: AUC + SEC

B1: his-EPLIN-α (natural protein)
chain: MENCLGESRHEVEKSEISENTDASGKIEKYNVPLNRLKMMFEKGEPTQTKILRAQSRSASGRKISENSYSLDDLEIGPGQLSSSTFDSEKNESRRNLELPRLSETSIKDRMAKYQAAVSKQSSSTNYTNELKASGGEIKIHKMEQKENVPPGPEVCITHQEGEKISANENSLAVRSTPAEDDSRDSQVKSEVQQPVHPKPLSPDSRASSLSESSPPKAMKKFQAPARETCVECQKTVYPMERLLANQQVFHISCFRCSYCNNKLSLGTYASLHGRIYCKPHFNQLFKSKGNYDEGFGHRPHKDLWASKNENEEILERPAQLANARETPHSPGVEDAPIAKVGVLAASMEAKASSQQEKEDKPAETKKLRIAWPPPTELGSSGSALEEGIKMSKPKWPPEDEISKPEVPEDVDLDLKKLRRSSSLKERSRPFTVAASFQSTSVKSPKTVSPPIRKGWSMSEQSEESVGGRVAERKQVENAKASKKNGNVGKTTWQNKESKGETGKRSKEGHSLEMENENLVENGADSDEDDNSFLKQQSPQEPKSLNWSSFVDNTFAEEFTTQNQKSQDVELWEGEVVKELSVEEQIKRNRYYDEDEDEE
With B1 the “stoichiometry N” value was roughly 8 polypeptides.
